Test results from patent US20080195324A1.

Target: 10-subunit yeast RNA polymerase II (yeast) (UniProt P16370)
Experiment: 2.8 Å cocrystal structure; change in solvent-exposed surface of pol II residues, AREAIMOL, probe radius 1.4 Å

Substance: α-amanitin (peptide)
- Δsurface area (Total): -541 Å^2
